Among the data in patent US20250347705 are binding signal (% of input DNA bound) values, retold here.

This series has as its target human chorionic gonadotropin (hCG), alpha/beta heterodimer (Homo sapiens) (UniProt P01215+P0DN86). The settings on record: hCG magnetic beads with qPCR, artificial urine; round 6 pool 2.54%, round 7 20.88%, round 8 22.85%.

Sequence of human chorionic gonadotropin (hCG), alpha/beta heterodimer (Homo sapiens) (P01215 25-116, chain 1 of 2, other chains not shown): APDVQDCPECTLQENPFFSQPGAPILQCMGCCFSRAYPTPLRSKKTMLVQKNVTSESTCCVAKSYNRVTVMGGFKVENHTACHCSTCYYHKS

The sequence “TCGCACATTCCGCTTCTACCNNNNNNNNNNNNNNNNNNNNNNNNNNNNNNNNNNNNNNNNCGTAAGTCCGTGTGTGCGAA [SELEX round 9 pool]” showed a binding signal (% of input DNA bound) of 77.4.
